Source: patent US20260275319

Tests used:
[1] = target: T1, PGA(10F) peptide, M. jannaschii MtrA-derived
T1 chain: PGAIDEDPFIIEL

[2] = target: T2, M. mazei Ub-(5)KDPGA(15) with N-terminal His-tag
T2 chain: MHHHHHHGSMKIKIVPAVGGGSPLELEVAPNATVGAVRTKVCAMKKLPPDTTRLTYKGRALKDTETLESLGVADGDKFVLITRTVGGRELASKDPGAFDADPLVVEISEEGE

[3] = target: T3, (0)KDPGA(10) peptide, M. mazei MtrA-derived
T3 chain: KDPGAFDADPLVVEI

[4] = target: T4, (5)KDPGA(10F) peptide, M. mazei MtrA-derived
T4 chain: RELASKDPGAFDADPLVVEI

[5] = target: T5, PGA(5) peptide, M. mazei MtrA-derived
T5 chain: PGAFDADP

[6] = target: T6, (15)KDPGA(10) peptide, M. jannaschii MtrA-derived, without fluorophore
T6 chain: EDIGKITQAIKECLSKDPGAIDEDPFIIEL

[7] = target: T7, PGA(10) peptide, M. mazei MtrA-derived
T7 chain: PGAFDADPLVVEI

[8] = target: T8, M. mazei PGA(15)-Ub with C-terminal His-tag
T8 chain: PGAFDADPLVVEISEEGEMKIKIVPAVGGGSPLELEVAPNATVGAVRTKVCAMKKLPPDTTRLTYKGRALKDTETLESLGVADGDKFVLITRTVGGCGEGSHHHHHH

[9] = target: T9, (15)KDPGA(10F) peptide, M. jannaschii MtrA-derived
T9 chain: T6 chain

[10] = target: T10, PGA(10) peptide, M. jannaschii MtrA-derived
T10 chain: PGAIDEDPFIIEL

B1: M. mazei Adriase with C-terminal His-tag (protein)
chain: TLVIAFIGKNGAVMAGDMREITFEGEKPDREKLEKELYSGSIVTDEEMQKKAEEFGVKITVADCKEKVSERNGVLVGEVSSAEGGVVKKRRLYASAGNFAIAELINTEMTLTSQGKGSNFIAFGNEFTKQVANKCFKDNWTKKSNLQDAVKILILCMETVARKTASVSKQFMIVQTASNADVLKVVEKDRNCGSHHHHHH
[1]
  ligase activity with M. jannaschii (15)KDPGA(10) and PGA(10F) peptides, fluorescent product on SDS-PAGE: also M. mazei Adriase showed activity when incubated with the M. jannaschii derived peptides
[2]
  ligation rate coefficient at 25 µM substrate, ligation of Ub-(5)KDPGA(15) with PGA(15)-Ub: 0.74±0.05 sec^-1 at 25 µM
  ligation rate coefficient at 50 µM substrate, ligation of Ub-(5)KDPGA(15) with PGA(15)-Ub: 0.88±0.07 sec^-1 at 50 µM
  ligation rate coefficient at 100 µM substrate, ligation of Ub-(5)KDPGA(15) with PGA(15)-Ub: 0.90±0.14 sec^-1 at 100 µM substrate concentration
  maximum rate of the protein-protein ligation of Ub-(5)KDPGA(15) with PGA(15)-Ub: a maximum rate of 0.92 ligations per enzyme and second
  substrate concentration at the half-maximum rate, ligation of Ub-(5)KDPGA(15) with PGA(15)-Ub: the half-maximum rate is observed at a substrate concentration of 2.2 µM each
[3]
  ligase activity with (0)KDPGA(10) as primary and PGA(15)-Ub as secondary substrate, SDS-PAGE time course: No Adriase activity was observed with (0)KDPGA(10) or PGA(5) substrates (n.d.; SEQ ID NO: 531 and 529)
[4]
  maximum ligation rate, ligation of (5)KDPGA(10F) with PGA(10), Michaelis-Menten fit: a maximum rate of ~2.25 ligations per enzyme and second
  substrate concentration at half maximal reaction speed, ligation of (5)KDPGA(10F) with PGA(10): The half maximal reaction speed is observed at a substrate concentration of ~9 µM each
[5]
  ligase activity with PGA(5) as secondary and Ub-(5)KDPGA(15) as primary substrate, SDS-PAGE time course: No Adriase activity was observed with (0)KDPGA(10) or PGA(5) substrates (n.d.; SEQ ID NO: 531 and 529)
[6]
  ligase activity with M. jannaschii (15)KDPGA(10) and PGA(10F) peptides, fluorescent product on SDS-PAGE: also M. mazei Adriase showed activity when incubated with the M. jannaschii derived peptides
[7]
  maximum ligation rate, ligation of (5)KDPGA(10F) with PGA(10), Michaelis-Menten fit: a maximum rate of ~2.25 ligations per enzyme and second
  substrate concentration at half maximal reaction speed, ligation of (5)KDPGA(10F) with PGA(10): The half maximal reaction speed is observed at a substrate concentration of ~9 µM each
[8]
  ligation rate coefficient at 25 µM substrate, ligation of Ub-(5)KDPGA(15) with PGA(15)-Ub: 0.74±0.05 sec^-1 at 25 µM
  ligation rate coefficient at 50 µM substrate, ligation of Ub-(5)KDPGA(15) with PGA(15)-Ub: 0.88±0.07 sec^-1 at 50 µM
  ligation rate coefficient at 100 µM substrate, ligation of Ub-(5)KDPGA(15) with PGA(15)-Ub: 0.90±0.14 sec^-1 at 100 µM substrate concentration
  maximum rate of the protein-protein ligation of Ub-(5)KDPGA(15) with PGA(15)-Ub: a maximum rate of 0.92 ligations per enzyme and second
  substrate concentration at the half-maximum rate, ligation of Ub-(5)KDPGA(15) with PGA(15)-Ub: the half-maximum rate is observed at a substrate concentration of 2.2 µM each

B2: M. jannaschii Adriase with C-terminal His-tag (protein)
chain: SLIICYYGKNGAVIGGDRRQIFFRGSEENRKILEEKLYSGEIKSEEELYKLAEKLNIKIIIEDDREKVRKISDSVVCGEVRSLGIDAKRRRVYATKGKCAIVDILNDTVTNQTIKEGFGIVVLGNRFLKKKAEEELKRTAKLFPMMPIQQIEDAIKEIFEKLKWHPTVSKEYDIYSVNKYEKNFEEVIKKDIESLFKYREQLRKQLIDFGKVMSIVNKIVKNGEIGVIKDGKLHLYDDYIAIDKIDPNPKVFKVVDVEGNFKDGDIVVIENGDMKIKGTNEKVTTKYIIIHKGSHHHHHH
[9]
  maximum ligation rate, recombination of (15)KDPGA(10F) with PGA(10), Michaelis-Menten fit: maximum rate of ~1.4 ligations per enzyme and second
  substrate concentration at half maximal reaction speed, recombination of (15)KDPGA(10F) with PGA(10): The half maximal reaction speed is observed at a substrate concentration of 23 µM each
[10]
  maximum ligation rate, recombination of (15)KDPGA(10F) with PGA(10), Michaelis-Menten fit: maximum rate of ~1.4 ligations per enzyme and second
  substrate concentration at half maximal reaction speed, recombination of (15)KDPGA(10F) with PGA(10): The half maximal reaction speed is observed at a substrate concentration of 23 µM each
